Data from the DeepSol protein solubility set.

Experiment: soluble on expression in E. coli; label from the status in PepcDB or PDB records
With “MGSDKIHHHHHHMTLTANNKKRAVLRVRPGQFVVTPAIEQVAIRALRYLTSGFAIHLRGPAGTGKTTLAMHLANCLDRPIMLIFGDDEFKSSDLIGSESGYTHKKLLDNYIHSVLKVEDEFKQNWVDSRLTLACREGFTLVYDEFNRSRPEVNNVLLSALEEKILTLPPSSNQPEYLHVNPQFRAIFTSNPEEYCGVHSTQDALMDRLVTINMPEPDELTQTEILAQKTALNRADALLVVQLVKAFRSRTGGEKTSGLRSCLMIAKVCAEHNILVAPESSDFREICADVLFNRTNWSASEATTIFLELLNHLNLEEIEEFKNSITSEDTDAIADEDHNAINESGFPTIIDSQFGTLDSEVLEQPGVEDSIPFEREIYLYLQQYKSAALALLQQEFELSRTVATNALNSLEQKGLVSKNNHVYTIEEPNQP” the “soluble on expression in E. coli” value was “not soluble”.
For “MSLTLPSEKPATDVAAQCFLNALIRETTDWKLTEYPPDELIIPLDEQKSLHFRVAYFSPTQHHRFAFPARLVTASGSYPVDFTTLSRLIIDKLRHQLFLPVPLCETFHQRVLESHAHTQQAIDARHDWTALREKALNFGEAEQALLTGHAFHPAPKSHEPFNRREAERYLPDMAPHFPLRWFSVDKTQIAGESLHLNLQQRLTRFAAENAPQLLNELSDNQWLFPLHPWQGEYLLQQGWCQALVAKGLIKDLGEAGTSWLPTTSSRSLYCATSRDMIKFSLSVRLTNSIRTLSVKEVKRGMRLARLAQTDGWQMLQVRFPTFRVMQEDGWAGLLDLNGNIMQESLFALRENLLVDQPKSQTNVLVSLTQAAPDGGDSLLVSAVKRLSDRLGITVQQAAHAWVDAYCQQVLKPLFTAEADYGLVLLAHQQNILVQMLGDLPVGFIYRDCQGSAFMPHATDWLDSIGEAQAENIFTHEQLLRYFPYYLLVNSTFAVTAALGAAGLDSESNLMARVRASLAEVRDQVTHKTCLNYVLESPYWNVKGNFFCYLNDHNENTIVDPSVIYFDFANPLQAQEGHHHHHH”, the “soluble on expression in E. coli” value was “soluble”.
For “MDREQVVALQHQRFAAKKYDPNRRISQKDWEALVEVGRLAPSSIGLEPWKMLLLKNERMKEDLKPMAWGALFGLEGASHFVIYLARKGVTYDSDYVKKVMHEVKKRDYDTNSRFAQIIKNFQENDMKLNSERSLFDWASKQTYIQMANMMMAAAMLGIDSCPIEGYDQEKVEAYLEEKGYLNTAEFGVSVMACFGYRNQEITPKTRWKTEVIYEVIE”, the “soluble on expression in E. coli” value was “soluble”.
With “MGHHHHHHGGHMSLPKQIDHEKRRKQIAEATWRVILERGMEGASARNIAKEAGLSLGALRHYFSTQDELLAFAMKLVQEKVTDRIKDIAVRDLLPKEKVLQILLEMVPTNEETIREMEVWFAFTAYARHKKDMFDASHDGIFSGMRNLIAYLDESDLLKQNADKDIEAERLYALVDGLALHAMLDPVRVNKDRIKRVIMQHVESICVEDTRETQKRHPEGGS” the “soluble on expression in E. coli” value was “soluble”.
With “MSLKQSHIRNFAIIAHIDHGKSTLADQIMSLTQTVSAREQHAQLLDDMTVEQAHGVTVKARTVRNYYQADDGQEYEYNLIDTPGHVDFNYEVAKSLAATEGAILLVDATQGVQAQTIANYRIAKQRQLTLIPVLNKVDLPSADIDAALAQLNDLDSAFTPEQVLQISAKTGQGVPAVLEAIKQRLPAPQGDLHQPLKALVFDSLYDPYQGVIAYVRLIDGQLKSQQALCLMQGQQDFNGKAIGVFAPQMHPQESLSAGDVGYVVTGIKDPRKVRVGDTLTSVATPTQRPLAGYQPAKSMVFAGLYPKNNDYPALKEAVQKLNLNDPSFTYVEERSEALGVGFRCGFLGTFHLQIIRERLHDEYGVDVLTTAPNVTYHVTLTNGQQVIVNNPVQFPAFSLIKEVTEPFMKAEITMPADNLNAVLKLAEQHKGTLIDLANSGDLIVASLKIPLSEIAYHFFSELKSVSHGFASLSTAFMANEVSDLVKVEVDINEGHHHHHH” the “soluble on expression in E. coli” value was “soluble”.
For “MGSDKIHHHHHHMDDGTRLGQADHAAGPRPPGVIFTMRYPSDVGFVWKTIALHRDLIARAFGGEARCILAYPQLSPTSAYQPRWSTAIQADFYDYSAENRQRLERVITDEAIRLVVFMSAQPADVDLGFLRGLGLRTVTSENNSYDHSLRQPFMKRLAKALIRRVLKRQVFDLHIANSQAQYDFLRGFAQLPASRLRAVRNGVDTDHFQPGERTGACSTLGLDPDRLWIMAASQARPEKRLERVLEVIRAVKDARPALPIGFFFVGEGENLAEWRQIALGLPDAETYRFFGRQNDLRPYYQAASVFIHGAFRESFGLVIAEAMASGLPVVATHAHGPAEIIAEGETGRLVGRDDWEGLGKAVIEYLDDAELRRTHGLAGRARCVALFSITRQAQEFADLLRPFLKDGAGAPY”, the “soluble on expression in E. coli” value was “not soluble”.
With “MAHHHHHHMGTLEAQTQGPGSMSVRVAINGFGRIGRNILRAIIESGRQDIEVVALNDLGSVETNAHLLRYDSVHGCFPGTVQVVGDAIDIGSSLIKVFAERDPAQLPWKALDIDIALECTGIFTARDKASAHLDAGAKRVLVSAPSEGADLTVVYGVNHQFLSKEHHVISNASCTTNCLAPVAQVLHNTVGIEKGFMTTIHSYTGDQPVLDTMHRDLYRARAAALSMIPTSTGAAKAVGLVLPELKGLLDGVSIRVPTPNVSVVDLTFTAKRSTTIEEINTAIRTAAQGSLKGILDYTDEKLVSCDFNHNPHSAIFHNDQTKVIDGQLCRVLVWYDNEWGFSNRMCDTAVAFAKTI” the “soluble on expression in E. coli” value was “soluble”.
In the case of “MDMKHTLLEALGIEIVENTAERCVAVMPVDHRTVQPFGYLHGGASVALAETAARPGAQNLIDHTTQACVGLEINANHLKSVKEGTVKAIAEPVHIGRTTIVYHIHIYDEQERLICISRCTLAVIKKLEHHHHHH”, the “soluble on expression in E. coli” value is reported as “soluble”.
In the case of “MSLGSLVIKKSIIAALVVALGIAGQSVQAESVPDETLQSEKVQTEKVQAEKTETDLFSPVEQIMNPFYPKYPPTKPATGEQAELIKRGEYLAKMGDCIACHTDVEGGTPAYAGGLPINTPFGLFYSPNITPDKETGIGNWTEKDFIRALKDGRDPKGRNYFPVFPYVYFSKITDDDARALYAYFMSIPPVKLKNKSLPFPFGVPGARFALWGWNLLFFFPQENSIEYDPDKSPEWNRGRYIVDTLGHCSMCHTPMNIFGSAKNRYYLTGSFIDGYWAPNITKYGLESASHQEVADVFKAGELINKAGPVAGPMAEVNHNSLSHLTEEDRLAIATYLKTVESEEYLGVSPSDLPPSVARGRQVYLKACLICHKDNKMGAPVIGDSASWYTRLKNSGLTGLYRHAIYGYNQMPVKGACVTCSDNDIISAVDYLLNASLTRSQWQDLASGGVKKYPASGKAVYNENCAVCHNEGKLGAPKIGDKVTWKPLIAQNMDVLIENTIRGKNHLPNGGCNHCSTDEVIEAIKYMVSQSKTEGNYSLWEGHHHHHH”, the “soluble on expression in E. coli” value is reported as “not soluble”.
For “MGSDKIHHHHHHMRILEINTEKGWRGGENQTLLALIGFRKLGHEAELLCFENSALHVQAAAAGFTCHPLTSSTKSIGFLMEYGKNYSILHTQTSKQLTYCILTKPFHNSKVILSRRVDFVPKGFFTLLKYNACDGIICVSGAIEKILKQSGIKTRTVVISDCVTEKTLNKTRAQELLQKLTISGKNIIGTTAALVPHKDPVTLVNAVNILRTKRSDFVLLHFGSGPLAATIQQFITDNNLQDYYKLIGFKERVEDYFSIFNYFVMSSQEEGLGSSVLDAFVYKVPVVSTNAGGLNELVTGRGYVTEKKNAQLLAEALHTAMNSPEQNKKNVAAGYTYAVSNLSVEKIHEEHIDFFKTV”, the “soluble on expression in E. coli” value was “not soluble”.
In the case of “SLGRQVYNFNPGWRFFKGDIRGAEAVNFDDRSWEVVSTPHTVELMPAEGSGCRNYQGPAWYRKHFVVPTATKGQRVLLHFEAAMGKQVLYLNGKRVQEHLGGYLPFTLDLTANGVQAGDSCLLAVYTDNSNDKSYPPGKPQYTLDFAYHGGIYRDVWMIAKSPVAITDAIDSRTVGGGGVFVHFDKISEKSAQVYVETEIQNDNTRSESVTIETTLTDAEGNVIKRTSGKLSLNSGEKKSIRQQMEVRNPKLWSPDAPYLYRVQSRIKKGNRSIDGGTTRIGIRLAEFRGKEGFWLNGKPFGQLVGANRHQDFAYVGNALPNSQQWRDAKRLRDAGCTIIRVAHYPQDPSFMDACDELGLFVIVATPGWQYWNKDPKFGELVHQNTREMIRRDRNHPSVLMWEPILNETRYPLDFALKALEITKEEYPYPGRPIAAADVHSAGVKEHYDVVYGWPGDDEKEDKPEQCIFTREFGENVDDWYAHNNNNRASRSWGERPLLIQALSLAKSYDEMYRTTGQFIGGTQWHPFDHQRGYHPDPYWGGIYDAFRQKKYAYEMFRSQSPASLQHPLAECGPMIFLAHEMSQFSDKDVVVFSNCDSIRLSIYDGTKTWTKPVVHAKGHMPNAPVIFENVWDFWEARGYSYTQKNWQKVNMVAEGIIDGKVVCTQKKMPSRRSTKLRLYADTQKVNLVADGSDFIVVVAEVTDDSGNVRRLAKENIVFTVEGEGEIIGDARIGANPRAVEFGSAPLLIRSTRKAGKIKVKAHVQFEGTQAPTAAEMEFESVPAELPFCYDEKEG”, the “soluble on expression in E. coli” value is reported as “not soluble”.
For “KYVDGFLIPIAKDKVNKYREIAQKSSQIWKDLGALEYYECIGDDLDIEELVSFKKVVNASEEETVIFSWIVYESKEQRDKVNEAVMNDPRMKEMMETSEYDLFDYRRMSYGGFKTLVSL”, the “soluble on expression in E. coli” value was “not soluble”.
For “LCPDPDDDEGLIVSDSDGMIVDVTEPLPRVTGYSKSELLGMETAALFWLRDGDNHSGHTRAPVSETEGRSHGLLECADGSRITVEQRSYTVRPEAETHVCTTVLFPGDGE”, the “soluble on expression in E. coli” value was “not soluble”.
In the case of “MGSDKIHHHHHHMKIAITGKGGVGKTFIASTLMRLFEKNGFKVIGVDCDPNPTLALAFGVEEEIVPLSKRHDIIEERTGAKPGTYGNIFKINPKVDDLIDKVGYKIGNITLLVMGTIEEGGEGCVCPASVLLRRLLRHLILKRDEVVILDMEAGIEHFGRKTIDTVDLMLIVIEPTKKSLITAKRMKKLANDLGIKNLGVIVNKVRNEDKELLKDIIKEELGLEVLGFVPYDEEVIKSEFLGKPINLDSKAAKEIEKIFNYIIKLKNTT”, the “soluble on expression in E. coli” value is reported as “not soluble”.
With “MGSDKIHHHHHHMIDLSTDYLGLKLKNPLVPSASPLSRNLDNALRLEDAGAAALVMYSLFEEELRAEDAMLDRFLTCPDFGHSEAANFLPSAPFEDGLERYVSQLQKLKARLGIPVIASLNGVSRSGWVELGRALEEAGADALELNVYHVAAEMWENGEAVEARYLSLLRDLRHAVKLPIVMKLSPFFSSLPNFVKRLEHAGAQGVVLFNRFYQPDIDLDTLCVVDRLHLSYPDEALLRIRWLSILHGRTGLTLAATGGVHSHDEALKMLLVGADVIHLASCLLQHGPARLTRILQDIERWMGERDYASVAQLKGSMSQKNLLDPAAMARLSYLRVLDSFSPQPGVWS” the “soluble on expression in E. coli” value was “not soluble”.
For “MGSDKIHHHHHHMQEERSEKKIGPFKFQSNFEWKEFPQEEFEWFVKEVEKRFGLNLSSYKPQRVKRRTELLLRKYNVGYREYLNMLIKDKKYLDEFMDKMTINVTEFFRNPEKWWELRDEIIPLIAKNSLRMKFWSAGCSSGEEPYSLAILVHELNLSYKTRILATDIDIGVLRRAQEGIYEERAFVSTPKEYLEKYFEKLPDGRYRIKDSVKKIVEFKRHDLLKDPFEKNFDLIVCRNVVIYFEPEAKNELYRKFAESLKPGGFLFVGNTERIFNYKELGFEIYKPFIYRKVK”, the “soluble on expression in E. coli” value was “not soluble”.
In the case of “MSLGNTGVASADYLTAPFYNPALVASFEEHDDFGLLLPAIGVNVRDSDESLATIDDLQDSIDEFEAAPIPSPGQIDQLNRYLDDLQGNAPLTASSSLGLAVAIPTKRFSTNLFARGYLELIARPNIADYLSTGPGNEVADTKKRYEDSSVTMAAFGYVEYGAALAKEFEIKEQRISFGVTPKIQQLTTYYVVPTVADFELDDYEESEHKESAFNLDFGVVWLKDKFQVALAVKDLLSQEIDLKDKNGQKQDVYELNTQVSAGVAYRSDFFTAAMDLDLTKQERFKSLDDETQFVRFGVEGNAWGWAQLRAGYEIDLEDTVENAFTAGIGISPFDVVSLDIAGSYAGENQFGVSGNLAFTFEGHHHHHH”, the “soluble on expression in E. coli” value is reported as “not soluble”.
With “MGSDKIHHHHHHLRALGYQGRDVEVVALNDAQYLVAACDSCGAIGEKELDAVKVPWRVTGRMTARVALLEVLAVGAVPQMLSIAIANEPLPAGEEIMKGVREELKAMNLLSLPAAVSTEKNMPTEQTGLGITVIGLCDQDKLRIGRARPGNSLFCLGLPKVGTEAADPEDPDILQGIHLIQLLNIPGVYDIIPVGSQGIRGEAEALAQAVGARFGEDSQCRLDINKSAGPSTCLIFTAAEDIELGDFGKLPIHKIGRLEEDGGGGLLTENED” the “soluble on expression in E. coli” value was “not soluble”.
